Legend:
DLD1 and U20S cells = assay: Mitotic index of stably transfected DLD1 and U20S cells in response to nocodazole; type: cell-based, human
Procedure: (§1) Stable transfectants were prepared by transfecting DLD1 or U20S cells with 5 μg pSV2-HAchfr or pSV2-HAchfr-M580, or 5 μg pSV2 vector without insert and 1 μg pSV7neo plasmid [Wieczorek et al., supra] using Fugene-6 transfection reagent (Roche). Stably transfected cells were selected with G418. For transient expression, DLD1 or U20S cells were transfected with 5 μg pSV2-HAchfr or pSV2-HAchfrM580 or pSV2 plasmid without insert and 2 μg of a plasmid expressing green fluorescent protein using Fugene-6. SAOS2 cells were transfected as described above, except that the plasmids expressing Chfr were cotransfected with a plasmid expressing green fluorescent protein (GFP).
(§2) Cells were grown on 8-well culture slides coated with human fibronectin (Becton Dickinson) and were examined as either non-synchronized or synchronized cells. […] The slides were sealed with coverslips using Fluoromount-G (Upstate Biotechnology) and visualized with a fluorescence microscope (Leica). […]
To determine whether Chfr accounted for the different response, DLD1 and U20S cells were prepared to stably express HA-tagged wild-type Chfr or Chfr with the […] substitution (M580) or just the neo selectable marker. […] Furthermore, the different effects of wild-type Chfr and Chfr-M580 could not be attributed to differences in protein expression, as determined by immunoblotting. […]

DLD1 cells [1] = assay: Mitotic index of transiently-transfected DLD1 cells exposed to mitotic stress; type: cell-based, human; details: DLD1 cells co-transfected with wild-type Chfr
Procedure: as §1, §2
About 50% of the cells expressed GFP, but the variable level of expression made it difficult to define a threshold above which a cell would be considered GFP-positive. Thus, to avoid any bias, the mitotic index was calculated for the entire cell population. […]

Chfr = assay: Ubiquitin-protein ligase assay in vitro; type: biochemical, human; details: crude bacterial lysates with E1, E2, ubiquitin and ATP; 20 minutes at 30° C.
Procedure: Recombinant E. coli bacterial cells that have been genetically engineered to express the E1 ubiquitin-activating enzyme and the E2 ubiquitin-conjugating enzyme (either UbchD2 or Ubch8) and a […] comprised of glutathione S-transferase fused to the N-terminus of Chfr were lysed. The lysates were incubated in the presence of ubiquitin and ATP and the reaction allowed to proceed for 20 minutes at 30° C. GST-Chfr was captured on glutathione beads, eluted with SDS sample buffer, and resolved by SDS-PAGE. The SDS gel was immunoblotted with antibodies that recognize ubiquitin. Reactions were performed with full-length Chfr fused to GST and reactions were performed with Chfr lacking amino acid residues 1–280 of SEQ ID NO: 2, which contain the FHA domain.

DLD1 cells [2] = assay: Mitotic index of unsynchronized DLD1 cells stably expressing Chfr or Chfr-A325, exposed to nocodazole; type: cell-based, human; details: stably transfected unsynchronized DLD1 cells
Text: To determine whether ubiquitin-protein ligase activity is required for checkpoint function, the Chfr mutant that substitutes Cys325 of the ring finger with Ala was stably-expressed in DLD1 cells. These cells were then exposed to mitotic stress and examined for entry into metaphase. The mitotic index of unsynchronized DLD1 cells exposed to nocodazole is high, indicating the absence of a checkpoint that would delay entry into metaphase in response to mitotic stress.

| Molecule | mitotic index in response to nocodazole (DLD1 and U20S cells) | dominant negative effect on wild-type Chfr (DLD1 cells [1]) | ubiquitin-protein ligase activity (ubiquitination of GST-Chfr) (Chfr) | mitotic index after exposure to nocodazole (DLD1 cells [2]) |
| --- | --- | --- | --- | --- |
| Chfr-M580: chfr protein bearing a substitution of Val580 with Met (protein, UniProt Q96EP1 1-664, looked up, variant V580M) E3 ubiquitin-protein ligase …: MERPEEGKQSPPPQPWGRLLRLGAEEGEPHVLLRKREWTIGRRRGCDLSFPSNKLVSGDHCRIVVDEKSGQVTLEDTSTSGTVINKLKVVKKQTCPLQTGDVIYLVYRKNEPEHNVAYLYESLSEKQGMTQESFEANKENVFHGTKDTSGAGAGRGADPRVPPSSPATQVCFEEPQPSTSTSDLFPTASASSTEPSPAGRERSSSCGSGGGGISPKGSGPSVASDEVSSFASALPDRKTASFSSLEPQDQEDLEPVKKKMRGDGDLDLNGQLLVAQPRRNAQTVHEDVRAAAGKPDKMEETLTCIICQDLLHDCVSLQPCMHTFCAACYSGWMERSSLCPTCRCPVERICKNHILNNLVEAYLIQHPDKSRSEEDVQSMDARNKITQDMLQPKVRRSFSDEEGSSEDLLELSDVDSESSDISQPYVVCRQCPEYRRQAAQPPHCPAPEGEPGAPQALGDAPSTSVSLTTAVQDYVCPLQGSHALCTCCFQPMPDRRAEREQDPRVAPQQCAVCLQPFCHLYWGCTRTGCYGCLAPFCELNLGDKCLDGVLNNNSYESDILKNYLATRGLTWKNMLTESLMALQRGVFLLSDYRVTGDTVLCYCCGLRSFRELTYQYRQNIPASELPVAVTSRPDCYWGRNCRTQVKAHHAMKFNHICEQTRFKN | high mitotic index | aid not act as a dominant negative mutant | – | – |
| Chfr-A325: Chfr mutant that substitutes Cys325 of the ring finger with Ala (protein, UniProt Q96EP1 1-664, looked up, variant C325A) E3 ubiquitin-protein ligase …: MERPEEGKQSPPPQPWGRLLRLGAEEGEPHVLLRKREWTIGRRRGCDLSFPSNKLVSGDHCRIVVDEKSGQVTLEDTSTSGTVINKLKVVKKQTCPLQTGDVIYLVYRKNEPEHNVAYLYESLSEKQGMTQESFEANKENVFHGTKDTSGAGAGRGADPRVPPSSPATQVCFEEPQPSTSTSDLFPTASASSTEPSPAGRERSSSCGSGGGGISPKGSGPSVASDEVSSFASALPDRKTASFSSLEPQDQEDLEPVKKKMRGDGDLDLNGQLLVAQPRRNAQTVHEDVRAAAGKPDKMEETLTCIICQDLLHDCVSLQPCMHTFAAACYSGWMERSSLCPTCRCPVERICKNHILNNLVEAYLIQHPDKSRSEEDVQSMDARNKITQDMLQPKVRRSFSDEEGSSEDLLELSDVDSESSDISQPYVVCRQCPEYRRQAAQPPHCPAPEGEPGAPQALGDAPSTSVSLTTAVQDYVCPLQGSHALCTCCFQPMPDRRAEREQDPRVAPQQCAVCLQPFCHLYWGCTRTGCYGCLAPFCELNLGDKCLDGVLNNNSYESDILKNYLATRGLTWKNMLTESLVALQRGVFLLSDYRVTGDTVLCYCCGLRSFRELTYQYRQNIPASELPVAVTSRPDCYWGRNCRTQVKAHHAMKFNHICEQTRFKN | – | – | lacks ubiquitin-protein ligase activity | did not lead to a low mitotic index |
| GST-Chfr: glutathione S-transferase fused to the N-terminus of full-length Chfr (protein, left off: a dimerising Fc or GST) MERPEEGKQSPPPQPWGRLLRLGAEEGEPHVLLRKREWTIGRRRGCDLSFPSNKLVSGDHCRIVVDEKSGQVTLEDTSTSGTVINKLKVVKKQTCPLQTGDVIYLVYRKNEPEHNVAYLYESLSEKQGMTQESFEANKENVFHGTKDTSGAGAGRGADPRVPPSSPATQVCFEEPQPSTSTSDLFPTASASSTEPSPAGRERSSSCGSGGGGISPKGSGPSVASDEVSSFASALPDRKTASFSSLEPQDQEDLEPVKKKMRGDGDLDLNGQLLVAQPRRNAQTVHEDVRAAAGKPDKMEETLTCIICQDLLHDCVSLQPCMHTFCAACYSGWMERSSLCPTCRCPVERICKNHILNNLVEAYLIQHPDKSRSEEDVQSMDARNKITQDMLQPKVRRSFSDEEGSSEDLLELSDVDSESSDISQPYVVCRQCPEYRRQAAQPPHCPAPEGEPGAPQALGDAPSTSVSLTTAVQDYVCPLQGSHALCTCCFQPMPDRRAEREQDPRVAPQQCAVCLQPFCHLYWGCTRTGCYGCLAPFCELNLGDKCLDGVLNNNSYESDILKNYLATRGLTWKNMLTESLVALQRGVFLLSDYRVTGDTVLCYCCGLRSFRELTYQYRQNIPASELPVAVTSRPDCYWGRNCRTQVKAHHAMKFNHICEQTRFKN | – | – | efficient ubiquitination | – |
